The source of these data is patent US9688764B2, “Methods of treating breast cancer by administering anti-human prolactin receptor (PRLR) antibodies” (REGENERON PHARMACEUTICALS, INC., priority 2013, dated 2017).

Test [1] relates to HEK293 (non-expressing parental cells). Nature of the test: FACS cell surface binding. In short, it runs like this:
(§1)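 HEK293 lines stably expressing HA-tagged human, cynomolgus or mouse PRLR, native-expressing T47D and parental HEK293 tested by flow cytometry. Cells (1×10^5) stained with primary antibody 30 min on ice, then PE anti-human secondary; MFI expressed as fold over isotype control.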

Test [2] addresses T1, T47D (native PRLR expressing cell line) (Homo sapiens, UniProt P16471).
T1 construct: a native PRLR expressing cell line (T47D); endogenous in cells; host or cells: T47D
T1 sequence (P16471 25-622): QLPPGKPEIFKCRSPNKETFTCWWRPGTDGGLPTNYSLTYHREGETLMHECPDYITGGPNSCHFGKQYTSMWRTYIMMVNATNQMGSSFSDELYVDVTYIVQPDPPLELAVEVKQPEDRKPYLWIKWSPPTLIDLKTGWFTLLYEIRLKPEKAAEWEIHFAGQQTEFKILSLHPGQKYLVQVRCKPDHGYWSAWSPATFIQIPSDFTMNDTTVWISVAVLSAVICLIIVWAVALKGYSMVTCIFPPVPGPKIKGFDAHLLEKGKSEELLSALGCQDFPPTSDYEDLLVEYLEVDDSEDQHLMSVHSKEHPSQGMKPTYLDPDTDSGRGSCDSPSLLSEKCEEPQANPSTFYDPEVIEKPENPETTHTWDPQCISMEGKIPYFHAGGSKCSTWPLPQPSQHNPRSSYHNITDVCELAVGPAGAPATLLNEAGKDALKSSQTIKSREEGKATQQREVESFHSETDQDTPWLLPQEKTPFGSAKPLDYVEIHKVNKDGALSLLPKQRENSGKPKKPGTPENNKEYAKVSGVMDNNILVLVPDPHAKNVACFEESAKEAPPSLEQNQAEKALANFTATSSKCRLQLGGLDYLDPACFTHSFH
As to the kind of experiment: FACS cell surface binding. In a few lines:
as §1

Test [3] deals with T2, HEK293/hPRLR (Homo sapiens, UniProt P16471).
T2 construct: HA; expressed in transfected cells; host or cells: HEK293
T2 sequence (P16471 25-622): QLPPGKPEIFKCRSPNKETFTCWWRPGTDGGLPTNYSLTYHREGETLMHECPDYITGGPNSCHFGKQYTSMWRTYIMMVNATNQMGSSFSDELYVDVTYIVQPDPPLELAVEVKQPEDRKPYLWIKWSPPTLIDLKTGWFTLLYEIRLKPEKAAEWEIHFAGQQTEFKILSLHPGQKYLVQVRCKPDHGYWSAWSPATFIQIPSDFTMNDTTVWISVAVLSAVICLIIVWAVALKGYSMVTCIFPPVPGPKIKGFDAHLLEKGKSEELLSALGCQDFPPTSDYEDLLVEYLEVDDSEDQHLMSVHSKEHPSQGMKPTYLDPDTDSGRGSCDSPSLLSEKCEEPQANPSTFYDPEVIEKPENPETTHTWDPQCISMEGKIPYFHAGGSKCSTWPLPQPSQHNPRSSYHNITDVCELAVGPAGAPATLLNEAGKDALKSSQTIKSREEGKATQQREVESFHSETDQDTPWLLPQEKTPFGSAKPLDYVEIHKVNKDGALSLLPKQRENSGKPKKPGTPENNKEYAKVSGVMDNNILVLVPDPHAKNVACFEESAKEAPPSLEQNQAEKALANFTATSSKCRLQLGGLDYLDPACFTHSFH
Nature of the test: FACS cell surface binding. In a few lines: as §1

Test [4] deals with T3, HEK293/mPRLR (Mus musculus, UniProt Q08501).
T3 construct: HA; expressed in transfected cells; host or cells: HEK293
T3 sequence (Q08501 20-608): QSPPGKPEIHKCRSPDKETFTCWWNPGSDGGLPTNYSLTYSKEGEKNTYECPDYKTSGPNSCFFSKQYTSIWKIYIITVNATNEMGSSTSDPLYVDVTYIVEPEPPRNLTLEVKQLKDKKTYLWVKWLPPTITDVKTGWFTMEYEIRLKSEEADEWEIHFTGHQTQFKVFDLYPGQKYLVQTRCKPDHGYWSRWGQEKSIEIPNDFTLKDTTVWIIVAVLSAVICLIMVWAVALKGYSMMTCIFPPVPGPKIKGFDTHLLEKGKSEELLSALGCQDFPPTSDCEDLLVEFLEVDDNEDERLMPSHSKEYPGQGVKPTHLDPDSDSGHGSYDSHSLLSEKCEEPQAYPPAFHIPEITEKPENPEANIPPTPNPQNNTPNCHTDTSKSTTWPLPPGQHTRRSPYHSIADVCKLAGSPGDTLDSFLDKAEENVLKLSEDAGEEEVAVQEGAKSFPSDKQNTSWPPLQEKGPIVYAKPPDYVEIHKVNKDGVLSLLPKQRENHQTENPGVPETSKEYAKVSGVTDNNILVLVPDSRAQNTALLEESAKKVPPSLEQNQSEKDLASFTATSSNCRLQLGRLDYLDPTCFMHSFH
As to the kind of experiment: FACS cell surface binding. In a few lines: as §1

In test [5] the target is mfPRLR.mmh (monomeric macaca fascicularis PRLR). As to the kind of experiment: Surface plasmon resonance (Biacore T200), mAb-capture format. Type of test: binding. The settings on record: antibody-capture format, analyte mfPRLR.mmh. In a few lines: (§2)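 Anti-hFc capture of IgG1 mAbs; PRLR analyte flowed over (monomeric .mmh constructs for human and M. fascicularis, dimeric mFc fusion for human). 1:1 fit gave ka, kd.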
mfPRLR.mmh (monomeric macaca fascicularis PRLR), sequence (as listed by the source): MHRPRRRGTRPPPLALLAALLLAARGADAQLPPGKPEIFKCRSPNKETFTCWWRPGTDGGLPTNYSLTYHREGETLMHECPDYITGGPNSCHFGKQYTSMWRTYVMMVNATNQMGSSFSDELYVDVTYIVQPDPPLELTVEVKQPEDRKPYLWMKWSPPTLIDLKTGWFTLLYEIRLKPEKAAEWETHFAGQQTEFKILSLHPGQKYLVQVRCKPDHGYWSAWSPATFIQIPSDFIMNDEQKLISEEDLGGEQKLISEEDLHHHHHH
(SPR reads the build-up and loss of mass on a sensor chip optically.)

Test [6] has as its target T4, hPRLR.mFc (soluble dimeric human PRLR) (Homo sapiens, UniProt P16471).
T4 construct: dimeric (hPRLR.mFc)
The test is described as above. Type of test: binding. The conditions noted are these: antibody-capture format, analyte hPRLR.mFc. In a few lines:
as §2

T4 sequence (P16471 with tags, fused parts or gaps): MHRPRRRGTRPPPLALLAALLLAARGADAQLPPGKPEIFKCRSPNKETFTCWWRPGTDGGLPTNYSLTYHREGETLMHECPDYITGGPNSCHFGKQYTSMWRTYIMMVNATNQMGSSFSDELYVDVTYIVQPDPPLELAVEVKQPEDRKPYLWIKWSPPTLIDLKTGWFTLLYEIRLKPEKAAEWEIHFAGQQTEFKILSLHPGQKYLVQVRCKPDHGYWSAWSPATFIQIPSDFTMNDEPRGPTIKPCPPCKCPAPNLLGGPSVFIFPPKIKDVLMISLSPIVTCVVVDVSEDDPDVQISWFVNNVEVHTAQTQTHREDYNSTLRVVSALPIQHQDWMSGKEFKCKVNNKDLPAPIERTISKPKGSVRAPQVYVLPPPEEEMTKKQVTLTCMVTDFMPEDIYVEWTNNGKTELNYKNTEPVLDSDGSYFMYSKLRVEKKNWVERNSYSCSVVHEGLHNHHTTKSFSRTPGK

B1: H1H6804P: anti-PRLR antibody, human IgG1 Fc; HCVR/LCVR SEQ ID NOs 242/250 (antibody, V domains shown)
VH: QVTLKESGPVLVKPTQTLSLTCTVSGFSLSDAGMGVSWIRQPPGKALEWLAHIFSNDGKSYSTSLKSRLTISKDTSKRQVVLTMTNMDPVDTATYYCARIRTGTYSLYLDYWGQGTLVTVSS
VL: DIQMTQSPSSLSASVGDRVTITCRASQSINSYLNWYQQKPGKAPKLLLYFASSLQSGVPSRFSGSGSGTDFTLTISSLQPEDFASYYCQESYSTPWTFGQGTKVEIK
modifications: human IgG1 Fc
Usually Kd stands for a measure of binding affinity in units of concentration. On to B1, for which the “FACS Cell Binding (Fold Above Background)” value is reported as 1 Fold Above Background in test [1], 34 Fold Above Background in test [2], 1 Fold Above Background in test [3] and 1 Fold Above Background in test [4]. The Kd stood at 1.99 nM in test [5] (25° C.), 9.35 nM in test [5] (37° C.), 0.193 nM in test [6] (25° C.) and 0.369 nM in test [6] (37° C.). Further, the T½ was 18 min in test [5] (25° C.), 3 min in test [5] (37° C.), 133 min in test [6] (25° C.) and 56 min in test [6] (37° C.).

B2: H1H6953N: human IgG1 Fc form of H1M6953N; anti-PRLR; HCVR/LCVR SEQ ID NOs 274/282 (antibody, V domains shown)
VH: EVQLLESGGGLVQPGGTLRLSCAASGFTFSAYAMSWVRQAPGKGLEWVSSINVRAGDTYYADSVKGRFTISRDNSKNTLFLLMNSLRAEDTAAYYCAKARYSSNWGFDFWGQGTLVTVSS
VL: DIVMTQSPDSLTVSLGARTTINCQSSQTILHSSNNHNYLAWYQQKPGLPPKLLIYWSSTRESGVPDRFSGSGSGTDFTLTISSLQAEDVAIYYCQQYSNTPYTFGQGTKLEIN
modifications: human IgG1 Fc
With B2, the “FACS Cell Binding (Fold Above Background)” value in test [1] is 2 Fold Above Background; in test [2], 40 Fold Above Background; in test [3], 37 Fold Above Background; in test [4], 2 Fold Above Background. Moreover, the Kd amounted to 0.438 nM in test [5] (25° C.), 2.71 nM in test [5] (37° C.), 0.067 nM in test [6] (25° C.) and 0.116 nM in test [6] (37° C.). Besides, the T½ in test [5] (25° C.) is 36.3 min; in test [5] (37° C.), 4.5 min; in test [6] (25° C.), 242.2 min; in test [6] (37° C.), 68.0 min.
